Assays:
[1] = target: human CD2 (CD2 antigen, entire CD2 molecule) (human) (UniProt P06729); assay: flow cytometry, two colour staining of human PBMC (data not shown)
[2] = target: human CD2 (CD2 antigen, entire CD2 molecule) (human) (UniProt P06729); assay: flow cytometry on PBMC cultured with 500 ng/ml LO-CD2a, bound antibody detected with MARK-3-FITC (Figure 5a)
[3] = target: human CD2 (CD2 antigen, entire CD2 molecule) (human) (UniProt P06729); assay: flow cytometry, two colour staining of PBMC with biotinylated LO-CD2a and Leu-5bPE (Figure 1)

Chain of UniProt P06729 (P06729 25-351): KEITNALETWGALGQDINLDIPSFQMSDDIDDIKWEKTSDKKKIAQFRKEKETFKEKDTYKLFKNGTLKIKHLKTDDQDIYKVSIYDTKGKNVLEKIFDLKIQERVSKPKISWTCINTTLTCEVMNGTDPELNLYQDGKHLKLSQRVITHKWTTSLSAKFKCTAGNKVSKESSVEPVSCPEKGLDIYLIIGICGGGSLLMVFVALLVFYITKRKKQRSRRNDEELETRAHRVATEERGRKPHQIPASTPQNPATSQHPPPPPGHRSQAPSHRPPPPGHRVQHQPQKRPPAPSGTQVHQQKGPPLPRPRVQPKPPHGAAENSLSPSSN

LO-CD2a rat (IgG2b-Kappa) anti-CD2 monoclonal antibody, produced by the cell line ATCC HB 11423
percent of the population marked by T11 that is recognized [1]: 90%
percent of cells labelled by MARK-3 (bound LO-CD2a) at day 6 of culture [2]: 50%
% gated cells in the upper right (double positive) quadrant [3]: 66 % gated
% total cells in the upper right (double positive) quadrant [3]: 17 % total

Leu-5b, mouse anti-human-CD2 monoclonal antibody (Becton Dickinson)
% gated cells in the upper right (double positive) quadrant [3]: 66 % gated
% total cells in the upper right (double positive) quadrant [3]: 17 % total
